B1: 14-3-3 protein sigma (Homo sapiens), P31947 (parent)
chain: MERASLIQKAKLAEQAERYEDMAAFMKGAVEKGEELSCEERNLLSVAYKNVVGGQRAAWRVLSSIEQKSNEEGSEEKGPEVREYREKVETELQGVCDTVLGLLDSHLIKEAGDAESRVFYLKMKGDYYRYLAEVATGDDKKRIIDSARSAYQEAMDISKKEMPPTNPIRLGLALNFSVFHYEIANSPEEAISLAKTTFDEAMADLHTLSEDSYKDSTLIMQLLRDNLTLWTADNAGEEGGEAPQEPQS
partner: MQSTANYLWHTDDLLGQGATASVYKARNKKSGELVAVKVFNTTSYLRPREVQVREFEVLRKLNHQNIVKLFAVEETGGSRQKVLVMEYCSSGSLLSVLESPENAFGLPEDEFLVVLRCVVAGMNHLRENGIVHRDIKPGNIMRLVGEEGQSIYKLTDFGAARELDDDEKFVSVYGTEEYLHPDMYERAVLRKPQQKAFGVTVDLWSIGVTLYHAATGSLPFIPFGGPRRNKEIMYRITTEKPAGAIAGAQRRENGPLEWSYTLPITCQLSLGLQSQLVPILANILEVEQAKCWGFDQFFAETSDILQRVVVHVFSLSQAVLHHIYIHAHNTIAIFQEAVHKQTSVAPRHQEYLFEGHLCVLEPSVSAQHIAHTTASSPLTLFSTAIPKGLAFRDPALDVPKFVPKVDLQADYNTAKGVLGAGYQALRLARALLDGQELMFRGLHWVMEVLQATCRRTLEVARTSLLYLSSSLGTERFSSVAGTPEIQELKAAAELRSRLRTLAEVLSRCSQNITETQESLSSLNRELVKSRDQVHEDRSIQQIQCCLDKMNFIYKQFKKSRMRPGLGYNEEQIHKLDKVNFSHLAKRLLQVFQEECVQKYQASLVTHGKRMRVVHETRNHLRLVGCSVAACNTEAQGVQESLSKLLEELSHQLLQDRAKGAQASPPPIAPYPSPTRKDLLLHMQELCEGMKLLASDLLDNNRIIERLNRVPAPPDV
B2: 14-3-3 protein sigma (Homo sapiens), P31947 (parent)
chain: B1 chain
partner: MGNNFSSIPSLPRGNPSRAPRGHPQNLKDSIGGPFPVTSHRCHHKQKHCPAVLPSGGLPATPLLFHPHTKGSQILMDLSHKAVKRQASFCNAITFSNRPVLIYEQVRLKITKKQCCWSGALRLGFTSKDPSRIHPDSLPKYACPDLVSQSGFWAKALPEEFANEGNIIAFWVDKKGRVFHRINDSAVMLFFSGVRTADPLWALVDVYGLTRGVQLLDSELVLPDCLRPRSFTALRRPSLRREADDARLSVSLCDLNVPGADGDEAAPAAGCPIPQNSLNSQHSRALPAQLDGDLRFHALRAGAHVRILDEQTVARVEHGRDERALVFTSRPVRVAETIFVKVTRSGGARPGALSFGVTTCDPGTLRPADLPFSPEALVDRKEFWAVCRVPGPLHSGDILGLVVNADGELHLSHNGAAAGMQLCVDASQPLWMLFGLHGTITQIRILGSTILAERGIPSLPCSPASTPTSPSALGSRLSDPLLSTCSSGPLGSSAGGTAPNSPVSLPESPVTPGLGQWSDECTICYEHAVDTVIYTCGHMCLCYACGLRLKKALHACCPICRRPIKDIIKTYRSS
B3: 14-3-3 protein sigma (Homo sapiens), P31947 (parent)
chain: B1 chain
partner: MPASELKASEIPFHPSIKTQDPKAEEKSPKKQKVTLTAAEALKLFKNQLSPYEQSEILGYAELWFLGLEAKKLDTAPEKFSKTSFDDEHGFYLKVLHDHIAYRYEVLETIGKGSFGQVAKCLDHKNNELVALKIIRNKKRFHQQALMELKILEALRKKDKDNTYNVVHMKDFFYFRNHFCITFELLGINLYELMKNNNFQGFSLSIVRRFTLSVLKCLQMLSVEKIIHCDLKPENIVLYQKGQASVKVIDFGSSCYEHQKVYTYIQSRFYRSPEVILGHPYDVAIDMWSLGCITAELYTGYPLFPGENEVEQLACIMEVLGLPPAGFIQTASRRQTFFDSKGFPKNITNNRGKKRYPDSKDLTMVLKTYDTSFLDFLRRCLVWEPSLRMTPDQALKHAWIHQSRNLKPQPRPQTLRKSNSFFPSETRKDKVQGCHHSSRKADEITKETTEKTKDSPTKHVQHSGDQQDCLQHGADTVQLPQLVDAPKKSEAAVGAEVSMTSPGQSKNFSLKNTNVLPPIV
B4: 14-3-3 protein sigma (Homo sapiens), P31947 (parent)
chain: B1 chain
partner: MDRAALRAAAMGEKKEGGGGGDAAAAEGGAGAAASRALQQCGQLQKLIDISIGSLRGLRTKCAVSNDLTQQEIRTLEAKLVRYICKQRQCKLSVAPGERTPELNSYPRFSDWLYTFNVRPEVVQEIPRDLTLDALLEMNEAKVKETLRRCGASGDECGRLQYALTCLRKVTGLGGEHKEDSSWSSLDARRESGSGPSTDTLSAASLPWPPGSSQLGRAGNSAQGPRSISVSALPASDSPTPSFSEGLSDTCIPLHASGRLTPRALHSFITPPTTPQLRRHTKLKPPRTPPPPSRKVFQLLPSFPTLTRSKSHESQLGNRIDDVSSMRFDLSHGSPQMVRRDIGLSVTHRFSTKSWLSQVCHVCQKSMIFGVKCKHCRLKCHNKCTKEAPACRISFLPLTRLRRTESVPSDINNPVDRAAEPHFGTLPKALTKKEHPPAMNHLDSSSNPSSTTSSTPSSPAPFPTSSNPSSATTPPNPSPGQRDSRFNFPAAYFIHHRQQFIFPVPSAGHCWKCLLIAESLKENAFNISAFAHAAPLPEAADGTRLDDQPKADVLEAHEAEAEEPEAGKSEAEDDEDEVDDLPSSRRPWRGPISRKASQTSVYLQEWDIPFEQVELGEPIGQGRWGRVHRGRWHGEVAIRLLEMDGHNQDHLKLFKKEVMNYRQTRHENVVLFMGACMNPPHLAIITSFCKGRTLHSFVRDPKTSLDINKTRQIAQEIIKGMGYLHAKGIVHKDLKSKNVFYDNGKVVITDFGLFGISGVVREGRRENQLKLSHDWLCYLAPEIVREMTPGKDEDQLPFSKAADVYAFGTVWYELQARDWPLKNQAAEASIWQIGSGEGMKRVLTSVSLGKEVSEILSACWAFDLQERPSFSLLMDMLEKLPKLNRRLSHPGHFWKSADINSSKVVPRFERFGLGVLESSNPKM
B5: 14-3-3 protein sigma (Homo sapiens), P31947 (parent)
chain: B1 chain
partner: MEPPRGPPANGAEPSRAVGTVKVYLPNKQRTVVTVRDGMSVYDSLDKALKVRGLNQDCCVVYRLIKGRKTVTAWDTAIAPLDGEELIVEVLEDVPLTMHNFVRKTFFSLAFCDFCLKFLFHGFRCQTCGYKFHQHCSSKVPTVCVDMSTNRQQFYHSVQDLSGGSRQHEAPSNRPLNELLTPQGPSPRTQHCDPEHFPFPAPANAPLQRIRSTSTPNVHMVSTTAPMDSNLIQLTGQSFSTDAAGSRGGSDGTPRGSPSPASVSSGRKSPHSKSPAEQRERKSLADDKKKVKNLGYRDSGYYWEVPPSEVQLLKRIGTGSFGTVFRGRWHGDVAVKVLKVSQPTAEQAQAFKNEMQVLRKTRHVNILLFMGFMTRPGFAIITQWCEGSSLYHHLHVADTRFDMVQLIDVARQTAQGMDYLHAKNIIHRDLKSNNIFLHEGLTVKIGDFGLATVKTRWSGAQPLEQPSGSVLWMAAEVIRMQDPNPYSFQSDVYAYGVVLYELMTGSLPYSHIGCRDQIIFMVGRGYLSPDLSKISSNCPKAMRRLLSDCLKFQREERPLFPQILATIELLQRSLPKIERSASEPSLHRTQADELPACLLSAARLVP

Variants of: B1
Conditions: with ikke_human IKBKE

Variant | effect of a mutation on the interaction
K49E;R56E;V178D | decreasing interaction strength

Variants of: B2
Conditions: with neul1_human NEURL1, O76050

Variant | effect of a mutation on the interaction
K49E;R56E;V178D | decreasing interaction strength

Variants of: B3
Conditions: with dyrk4_human DYRK4, Q9NR20

Variant | effect of a mutation on the interaction
K49E;R56E;V178D | decreasing interaction strength

Variants of: B4
Conditions: with ksr1_human KSR1, Q8IVT5

Variant | effect of a mutation on the interaction
K49E;R56E;V178D | decreasing interaction strength

Variants of: B5
Conditions: with araf_human ARAF

Variant | effect of a mutation on the interaction
K49E;R56E;V178D | decreasing interaction strength
